According to the domain aggregation screens of Martell et al. (2025):

Assay: soluble fraction after stress (log2 fold change); higher = more stays soluble; pooled small domains, quantitative proteomics
Details: stress: 50 degC
Method in brief: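 Pooled custom libraries of small protein domains were measured in a high-throughput format, with quantitative proteomics as the read-out. Each library was stressed at 50°C. Aggregation propensity is given as the base-two logarithm of the fold change in how much of each protein stays soluble after the stress. Higher values mean a larger share of the protein remains in solution.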

Row | Sequence | soluble fraction (log2)
1 | HMRKLDQRLAGLLLGKGRLVKATHQQLADELGSVREMVSRLLKGFAEHDLVRMSREQIEIVDAAGLRKLAD | -1.33
2 | HMVMIPDLVGETIEDAKDILEGLGFEVEVRSEFPESDWGRPFARVTSLSPSAGQEVAKGTLVIIRSF | -0.288
3 | HMGKRPTIQMVAEMAGVSRGTVDRVLNGRSYVSAQVRQRVLAALQETGYISSREHHQQALQS | -0.0246
4 | HMKSKPRVPFGSLVEMGILKPGSILFDPKGKIKTKVMVDGSIKYKETEGSIHKVAAQIMGTESYNGWTYW | 0.355
5 | HMGHLSNENAGRLLDRVLNDKIHAIMLGHLSKENNMPELAHEAVRMEITMGESRYKADDFPIYVA | 0.11
6 | HMREYVGLSPFNKEKTPSFYVNDEKGQFFDFSSGKNGDLITFLQETERLTFMEAVERLAAEAGLPMPA | -0.491
7 | HMNGQFIELKNTTGTIIEARVLSFQNGKVKLQRNDGLIFVASISIFDSESIEVIKQKVAEISESKKS | -0.224
8 | HMRSDSEIKEDVLDELMWQPNIDETQIGVIVEKGVVTLTGFVDAYAKKTAALDAVKNVKGVKAVANDIEV | 0.131
9 | HMVIIPNILNKYKGLAFRQLEQVGLKIGDTIYEPNIQRDAVLRMQINGRSVQPGDQVMRFSVVDLVIG | -3.21
10 | HMGLSENALAMLKQQETVLIRLIDGRGNQGALASINLIVSRILNLDIVDRTPEDLLRVIASEGEQND | -3.78
11 | HMIDSDENERIKELIKALISETLKSRGVSPEVISDIKERVDRLHNEELPRFAAELKELISRN | 0.119
12 | HMAEPLEIGDTVRIIDGFYGGEIGVISELVNPDAKNAEFEQVRVRLDQDTELALPIHNVERVRL | 0.25
13 | HMEKIKNLTVTEFNLIANKNPSGSYDRITREALLHIIHKLESSYEAHTDLERKLFYKFRKAKFNAL | -1.91
14 | HMTIAEGLIFRFTEPFKPIDQYTYYIMGDNKVEQIPNFKTLEVMLAQRNQNYLSVRVIEKSQLDDILKEF | -4.04
15 | HMDLAENWKDDADITLAEYNAIRSRYKPGKLHRDTEFMIARDMLIRPETVLAIAHSRFSNVHTHPV | -0.945
16 | HMVTEIDYGAFIKMTEEGNIGEVKIEDNQIVFTDKENKAIYKTGIMPDSDLTQRLYDSGAVFA | 0.0785
17 | HMQPRYMLIKTAILDAIERGEMKPGSQVPSENQLAQQHNVSRMTARRALSEMVDDGILMRSQGIGTFVSD | -0.0879
18 | HMDGLAEQLFNILREELESGDYKPGQKLMSESALAQKYGVSRLTVRAAIARLSALDYVETRNGEGSFVKKR | 0.0422
19 | HMKNELNSKLIISIKEALPPQIKVATYLMDLLSLGREAVYRRIRGDVSFDLEELSIISKALNISIDDVL | -4.15
20 | HMTDLDDFAARLKTLTDGRASTPRLRDGVMMLSLDVGGLGPDQRDGLIAAIREGGLTVPGVSDVRIVMT | 0.0757
21 | HMRQDEKTLLYWIAGHLKREGRQITERSARHLVEQVGTDMENLSREMEKLIAYTMGRTEITGQDIDDI | -1.68
22 | HMNNPNFAIQKYVTGSDIKRVRKTLRLTQKKFAELVGVSKATMERWETKEDKITGPVVLLLKILEDHPEY | -1.3
23 | HMTSNEKARNAASAERRADIVAAARELYEEQGLSKTSVQDITNRMGVARSLFYHYFPDKEAVTSAVLDDYV | 0.244
24 | HMGQAVTMLKAGRLLANAKGTGAPVRSLEPGMLLYPTGVKEGTMWEVEDEMGNKGWVNSTLMETA | -0.212
25 | HMVSNFEAEFGRHFAIFFPGSEFTELKLRLLEEGAELIDPIRDTPFERFFFKDPNGYIFEVIDKE | -2.28

Row | Sequence | soluble fraction (log2)
26 | HMALTAEVLRSLIKHHGLGQSIQRTAKAVGLSASTVKKYFDRIAAANLTWQEAKSRTQEELIASLQPT | -0.358
27 | HMPEMHIYTKEGKIHITHIDENEEIKIYNPLGQIIYTGSPQDIPVLEGKGLYIIYIGKSAVEVLES | -1.65
28 | HMADLSAYAGKEGMTDSVLRPSGKVDIEGHILDAVSRGDFIEKGKRVIVIKAEGSYLVVKKRMP | -0.175
29 | HMQLTDLSALEAIIKEVLAANPKSVEDYKSGKEKAFGSLVGQAMKATKGKANPETVNSLLRKNLN | 0.519
30 | HMKIPPIMFVRAIMVAGRQSMAIMDIEGVGTGIIVRSGYSFSNGEGKVVRIGPDKVTVNWSGKHLDLAPG | -0.615
31 | HMNDAARQTTDILQHVRSSGSISFRDLWRLFMPFMAYRDFDAAVKSLVAAGHIATTENERKELHLIAF | -0.542
32 | HMETAADLLAAAKENPARFGILASEGRFGLGYMNDDLLDPDNLVAISREEADDLRGLGVYFHNLD | -0.0842
33 | HMSVDVGMQLRKLREERKISMRELARLSGLSANALSMIERGLTSPSVSTLNKLAGALEVPITAFFRI | -0.285
34 | HMKPDIETQLKKYRYKVSVSKKIKPYMVFSDKTLSELLTKSPTNLKELEDINGFGPVKVQEYGAAILEILK | -0.777
35 | HMVTTDPIADMLTRIRNASSQKHKSVDVPASKEKLAIAQILFEEGYIKSFEEIKEENNQGVIRITLKYTEK | -0.0766
36 | HMKPSVEIKVNGGTGAGVVKKGGSITVTANEPAEGKVFTGWQDESGKIVSTQKEYTFTVAEGTTLTAVYED | 0.45
37 | HMNQILDFTREVKNLPEQDKIKIVEALWSIIYSNKDADIYETNLMRRLAGLLYIDNKTMGDIKEKIKQNL | -0.601
38 | HMNTAIPIAIDQLRIGMYIQLGLNWMSHPFPVSSFRIASESQIEILRGLGLAEVRYVPAKSDPVP | -2.88
39 | HMNQYRKLDGDVQNQIIYILSEYPKLPATIVYQRLLDTNTIVKKDVSLSTVNRFVQKYKDSKGIT | -1.05
40 | HMNNVRIEHIDTIGTVRLHKKRGVKRVSLRIHQSGEIRVTQPLYLPFSAGVLFAKSHTEWIMKQKQK | -0.000591
41 | HMITPKQTAETLGIATSTLRRWASEFEPFLSLRTGVKRTYTTDDITTLKRVKDLFAQGLKTEQVREAL | -0.161
42 | HMEVQVGKQVRAFRETLGMTVQQFAERTGFSAALLAQIENRMVSPSLGTLVKIANTFGTTVSSFIG | 0.0076
43 | HMKANIGDQVFTQLKDQIINGEWRPGDRIPSEAQLIQLFGVSRGTVRQAVQKLAGEGLIVTRHGEGSFVQG | 0.096
44 | HMSGGNTSAFKGKLNYEYRGNDTIITGSTYPVKELIKKAGGRWDPGSSAWIIKGRHVSDNEIF | 0.171
45 | HMIYKLIADRLKNRINSDEFEVGDALPSEKALAGELEVSVMTIRKALTLLESEKLIVKRHGSGSYVARKSN | -0.429
46 | HMYYTAPDGRKREILDAALRLIAAGGPDSLTYRRVADEAGVPLGSLTYYFEAREDLIREAFRLYIAEASR | -3.04
47 | HMLELLSMEDIQRTRVGDLIATVRQVDRQHALVLDRDPETGKPAVRGIFSLSQISLRLGLNI | -0.557
48 | HMPASVSAIRKYLGGGSFKGVGPALAKRIVDAFGEYTIETIENDPKQLAKVKGVSEKMALEINTQ | -0.0317
49 | HMYHADLIGLRVETAAGEKLGTVKAVHNFGAGDVIEITGAEDKDGLMVPFTAEVVPEVDIENGRIVVS | -0.331
50 | HMENRREYQKAIDYLSDQIRAGTLTVGSRLPTERAIAEALGISRNSTREALRTMENMGMIESKQGSGHYLT | -0.00154

Row | Sequence | soluble fraction (log2)
51 | HMTNNFIVTWRNYNEEVLEIDVNVKKGSMPKYNGKTPEREGYQFVGWDPEITEVTKDITYVAQFM | -0.415
52 | HMTVAEVEDRMEASRVRQALDAVGEPHRTTIALAYFTGLTHTEIAQRMGVPLGTVKSRIRDGMAKMRTHLG | -0.617
53 | HMSSVDLLSERERQVLARISRGMSNEEIAAELAITPRTVRNHLANIYGKIDVHSRAEAVVWARERGIT | 0.0251
54 | HMPKMISPAQIKAIGAKTNNIAKASGVEQAQVYQSAVAHLGINNKSTKELTSQEASKVIEYLSTL | 0.0861
55 | HMGQQTVEPLSRRELEVLSLLAKGLSNQQIADRLVISVRTVKKHVENIHGKLGVQSRTQAVARARELGLV | 0.122
56 | HMSKYLAFTVKKNDELLPFIEKALNGISHTKAKAILANGGAMVNKNTITQYNYPLTPGMTVEISRH | 0.131
57 | HMRHEDLSPAQKAAALVVAVGSENAAQVLRHLSEEEVEILAGEVARLGEVDPDVVDSVMREVYEQMMGH | -0.423
58 | HMKNTVGEYRKLKSTTILYSNSDLTGTKYTYLPNTTVKILKNISSTVDYVYIKATNRYAYINIYAYT | -2.75
59 | HMVSYTLPTLHTGKNWYVDFTAYDPAEQKMKRKKYMLDGISKITERRKRAVDIIATVTARLRSGWNPWA | -2.7
60 | HMARPLHVDALIHLGTEIGSRVGGAHAGPHLLVAGHSPMSELVYARLLGIPTLGWMRGQLTFVNLSK | 0.155
61 | HMATVPNVVGLSEEKAKSRLANNGLNVSVTTEEVSDKSKDGIVSSQTSEGDTVKQGATITITVGKYVEK | 0.14
62 | HMVSNRMVYSDFQQKWINNQVESINVNADKMTIEVTTQDEKKYTVYAPSSMIEFLNEQYPKDDIKIEYVAP | -0.147
63 | HMPNSIKAPAYLHNIARIYDHVLIDVEKASSAYEKLIKKYPNHPLSINAKLYLENAFNRSDEELLNMIKEN | -0.798
64 | HMAHILDLMELKQILRLHMDGLSNRRISDTLGIHRNTINSYVSQFKASKHGIEELLKLSDYELAQLFP | -2.26
65 | HMPSARELLATNIVRLRKEKGWSQEDLALEAGLHRTFVAHVERHARNISLDNIERLANALQVNVHILLL | -3.79
66 | HMSADIGAEKAKTIALNHAGVSASNAVFLHAKLDYDDGRRTYEVEFYSGSKEYDYEIDAATGEILSYDFD | -0.777
67 | HMETYTVSSKDGYANVRNEATVNSDLIAELKNGTLVTKFKEKGEWYYIEFEREDGTPFDYGYIHKSQLK | 0.181
68 | HMQETILFGQQKAINNLSSDTGLSENDLDSYLKKRYKKPLYQLTQSEGADIINGFQDGSLSKNSILDYIKP | 0.16
69 | HMLDIVVGSTGYALGEITDHSGTVRVNGDTWTARLVDAAGPVEDGDRVEVYAVEGTTLLVYPS | -0.396
70 | HMKKLPEKFDYNEISGLRIEAQQKLNEFQPLNIGQASRISGVTPADISVLLVYLEQLKYSNPDLFFKLNPD | -0.798
71 | HMDREIVEAIVPLEAAGKRFDAALAEMFPEFSRSRLTEWIKAGDALLAGEIVKPKVSVRGGEAVSLSIRV | -0.485
72 | HMSNAIDDAVEKVISENLDLAKERGLQSMGPLMGLVMKELGGTADGKAVSEALRRKISEISD | 0.293
73 | HMQITDSGAIETIIDKIIADNPGQVTQYLSGKDKVFGFFVGQTMKASQGKANPAEVNKILQEKLK | 0.00553
74 | HMELDFLRLQIITGIHSGRLSNNEILMMYDTYSQKGGNSYVSRIVNDYVDENNIKEEGKRNARK | -0.346
75 | HMITTEEVLNRIRKKVDHPATIRELQKALSIADDDRHRFRRRIRTLVASGALVRIRGNRYGLPSK | -0.275
